The series in a line: observed amide hydrogen exchange rate constant kobs (stretched exponential fit, FD-normalized) (s^-1); higher = faster H/D exchange (less protection). Conditions: pH 3 (pH read); temperature: 20 °C; D2O: 88%. The procedure, abridged:
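Jurkat tryptic peptides (LysC/trypsin, carbamidomethylated cysteines) were labeled in 88% D2O, pHread 3, 20 °C, quenched with 0.23% formic acid at 13 times from 18 to 93,600 s, in processing triplicates. MS1 uptake (Q-Exactive HF, HDExaminer, no back-exchange correction) was normalized to full-deuteration controls (24 h, 37 °C). Curves were fitted to a stretched single exponential with β = 0.8. The observed exchange rate constant kobs is the fitted rate.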
For the substance ALLFIPR, the “observed amide hydrogen exchange rate constant kobs” value was found to be 0.000533.

With VFEGNRPTNSIVFTK, the “observed amide hydrogen exchange rate constant kobs” value was determined as 0.000712.

On to LISWYDNEFGYSNR, for which the “observed amide hydrogen exchange rate constant kobs” value worked out at 0.00164.

Take KLEAAEER: the “observed amide hydrogen exchange rate constant kobs” value came out at 0.00257.

As for DRPFFPGLVK, the “observed amide hydrogen exchange rate constant kobs” value was determined as 0.000625.

On to VLQALEGLK, for which the “observed amide hydrogen exchange rate constant kobs” value came out at 0.00101.

As for SNEILTAIIQGMR, the “observed amide hydrogen exchange rate constant kobs” value turned out to be 0.000423.

As to ALWFQGR, the “observed amide hydrogen exchange rate constant kobs” value came to 0.00126.

On to VVLIGGKPDR, for which the “observed amide hydrogen exchange rate constant kobs” value was found to be 0.00162.

As to DALSDLALHFLNK, the “observed amide hydrogen exchange rate constant kobs” value worked out at 0.00125.

Consider LLEVEHPAAK, for which the “observed amide hydrogen exchange rate constant kobs” value was determined as 0.00188.

Regarding HQGVMVGMGQK, the “observed amide hydrogen exchange rate constant kobs” value is 0.00127.

Take LAAIAESGVER: the “observed amide hydrogen exchange rate constant kobs” value was 0.000919.

In the case of GYSFTTTAER, the “observed amide hydrogen exchange rate constant kobs” value is 0.00184.

As to HLEINPDHSIIETLR, the “observed amide hydrogen exchange rate constant kobs” value came to 0.00155.

For LFIGGLSFETTDDSLREHFEK, the “observed amide hydrogen exchange rate constant kobs” value turned out to be 0.00239.

Regarding EAMEDGEIDGNK, the “observed amide hydrogen exchange rate constant kobs” value worked out at 0.0032.

For the substance TVALWDLR, the “observed amide hydrogen exchange rate constant kobs” value is 0.000702.

In the case of VTLDWAK, the “observed amide hydrogen exchange rate constant kobs” value came out at 0.00095.

Regarding LMGLEALK, the “observed amide hydrogen exchange rate constant kobs” value amounted to 0.000548.

VHIEIGPDGR: the “observed amide hydrogen exchange rate constant kobs” value stood at 0.00136.

Take IAIYELLFK: the “observed amide hydrogen exchange rate constant kobs” value turned out to be 0.000527.

In the case of TIIPLISQCTPK, the “observed amide hydrogen exchange rate constant kobs” value is 0.000921.

As to LAVNMVPFPR, the “observed amide hydrogen exchange rate constant kobs” value is 0.000639.

For ALTSELANAR, the “observed amide hydrogen exchange rate constant kobs” value stood at 0.00115.

AVELAANTK: the “observed amide hydrogen exchange rate constant kobs” value is 0.00114.

For the substance LTDCVVMRDPASK, the “observed amide hydrogen exchange rate constant kobs” value was 0.000824.

With AEDNADTLALVFEAPNQEK, the “observed amide hydrogen exchange rate constant kobs” value is 0.00102.

Turning to GEGQLGPAER, the “observed amide hydrogen exchange rate constant kobs” value worked out at 0.0023.

Consider SGYLAGDK, for which the “observed amide hydrogen exchange rate constant kobs” value stood at 0.00168.

Turning to TLHPDLGTDK, the “observed amide hydrogen exchange rate constant kobs” value was found to be 0.00356.

PFLWLAR: the “observed amide hydrogen exchange rate constant kobs” value was 0.000665.

For the substance QEMQEVQSSR, the “observed amide hydrogen exchange rate constant kobs” value is 0.00166.

Consider GFSTWLK, for which the “observed amide hydrogen exchange rate constant kobs” value was found to be 0.000875.

With NLLSVAYK, the “observed amide hydrogen exchange rate constant kobs” value stood at 0.00119.

In the case of ELGIWEPLAVK, the “observed amide hydrogen exchange rate constant kobs” value worked out at 0.000742.

With NVTLPAVFK, the “observed amide hydrogen exchange rate constant kobs” value was 0.000481.

VTLATLK: the “observed amide hydrogen exchange rate constant kobs” value worked out at 0.000759.

On to GFGFVTYATVEEVDAAMNARPHK, for which the “observed amide hydrogen exchange rate constant kobs” value turned out to be 0.00098.

HAVSEGTK: the “observed amide hydrogen exchange rate constant kobs” value amounted to 0.00263.

As for NQGGYGGSSSSSSYGSGR, the “observed amide hydrogen exchange rate constant kobs” value was 0.00275.

Regarding ETIEQEK, the “observed amide hydrogen exchange rate constant kobs” value is 0.00152.

In the case of EWFLQAAK, the “observed amide hydrogen exchange rate constant kobs” value worked out at 0.00111.

On to DTGIFLDLMHLK, for which the “observed amide hydrogen exchange rate constant kobs” value was 0.00141.

On to VFLAQK, for which the “observed amide hydrogen exchange rate constant kobs” value was 0.00073.

Take AVTEQGAELSNEER: the “observed amide hydrogen exchange rate constant kobs” value was 0.00216.

NIEDVIAQGIGK: the “observed amide hydrogen exchange rate constant kobs” value was 0.00103.

In the case of HELLQPFNVLYEK, the “observed amide hydrogen exchange rate constant kobs” value came to 0.00104.

Take VYVGNLGNNGNK: the “observed amide hydrogen exchange rate constant kobs” value was determined as 0.00211.

For the substance EILVGDVGQTVDDPYATFVK, the “observed amide hydrogen exchange rate constant kobs” value was 0.00102.

Take LVPVGYGIK: the “observed amide hydrogen exchange rate constant kobs” value is 0.000648.

In the case of LVIEEAER, the “observed amide hydrogen exchange rate constant kobs” value is 0.00116.

On to DEILPTTPISEQK, for which the “observed amide hydrogen exchange rate constant kobs” value is 0.000626.

Take GYFEYIEENK: the “observed amide hydrogen exchange rate constant kobs” value is 0.00229.

As to LIAPVAEEEATVPNNK, the “observed amide hydrogen exchange rate constant kobs” value stood at 0.00102.

For TFVNITPAEVGVLVGK, the “observed amide hydrogen exchange rate constant kobs” value was found to be 0.000609.

For the substance AYHEQLSVAEITNACFEPANQMVK, the “observed amide hydrogen exchange rate constant kobs” value worked out at 0.00146.

For the substance NWMNSLGVNPR, the “observed amide hydrogen exchange rate constant kobs” value worked out at 0.000991.

Regarding LAYINPDLALEEK, the “observed amide hydrogen exchange rate constant kobs” value stood at 0.00137.

Take SFFTDDDK: the “observed amide hydrogen exchange rate constant kobs” value worked out at 0.0032.

On to YIDQEELNK, for which the “observed amide hydrogen exchange rate constant kobs” value was 0.00207.

Turning to IGPLGLSPK, the “observed amide hydrogen exchange rate constant kobs” value was 0.000838.

For the substance LDGLVETPTGYIESLPR, the “observed amide hydrogen exchange rate constant kobs” value was determined as 0.000897.

Regarding EVVEEAENGR, the “observed amide hydrogen exchange rate constant kobs” value worked out at 0.00211.

Consider GEENLMDAQVK, for which the “observed amide hydrogen exchange rate constant kobs” value is 0.00185.

Take SLAGSSGPGASSGTSGDHGELVVR: the “observed amide hydrogen exchange rate constant kobs” value was 0.00237.

On to QEYDESGPSIVHRK, for which the “observed amide hydrogen exchange rate constant kobs” value was 0.00258.

With PFLNGLTGKPVMVK, the “observed amide hydrogen exchange rate constant kobs” value stood at 0.000606.

With DQLIYNLLK, the “observed amide hydrogen exchange rate constant kobs” value came out at 0.000541.

Turning to RHLTGEFEK, the “observed amide hydrogen exchange rate constant kobs” value worked out at 0.00392.

As to LLDVVHPAAK, the “observed amide hydrogen exchange rate constant kobs” value was 0.00126.

IDFYFDENPYFENK: the “observed amide hydrogen exchange rate constant kobs” value amounted to 0.00186.

On to VSFELFADK, for which the “observed amide hydrogen exchange rate constant kobs” value is 0.00165.

Take VLNTNIDGR: the “observed amide hydrogen exchange rate constant kobs” value was determined as 0.00162.

Regarding YNQLLR, the “observed amide hydrogen exchange rate constant kobs” value was found to be 0.000842.

Consider NFSDNQLQEGK, for which the “observed amide hydrogen exchange rate constant kobs” value amounted to 0.00213.

Regarding VPPPPPIAR, the “observed amide hydrogen exchange rate constant kobs” value turned out to be 0.000659.

Regarding IVEMSTSK, the “observed amide hydrogen exchange rate constant kobs” value was found to be 0.00206.

Turning to AVDDGVNTFK, the “observed amide hydrogen exchange rate constant kobs” value came to 0.00173.

For HSQFIGYPITLYLEK, the “observed amide hydrogen exchange rate constant kobs” value stood at 0.000606.

On to EIIDLVLDR, for which the “observed amide hydrogen exchange rate constant kobs” value came out at 0.00103.

Turning to HALIIYDDLSK, the “observed amide hydrogen exchange rate constant kobs” value worked out at 0.00058.

As to VNFAMNVGK, the “observed amide hydrogen exchange rate constant kobs” value turned out to be 0.000903.

In the case of VDQIIMAK, the “observed amide hydrogen exchange rate constant kobs” value was 0.00126.

Turning to EVTPEGLQMVK, the “observed amide hydrogen exchange rate constant kobs” value was found to be 0.000799.

As for ELSDFISYLQR, the “observed amide hydrogen exchange rate constant kobs” value was found to be 0.000898.

In the case of GIAYIEFK, the “observed amide hydrogen exchange rate constant kobs” value came out at 0.00091.

As for AILVDLEPGTMDSVR, the “observed amide hydrogen exchange rate constant kobs” value stood at 0.0012.

On to LFIGGLNTETNEK, for which the “observed amide hydrogen exchange rate constant kobs” value was determined as 0.00144.

As to DEFEGLFK, the “observed amide hydrogen exchange rate constant kobs” value was found to be 0.00163.

For DVLFLK, the “observed amide hydrogen exchange rate constant kobs” value worked out at 0.000617.

In the case of FTQAGSEVSALLGR, the “observed amide hydrogen exchange rate constant kobs” value was found to be 0.00109.

As to SLADELALVDVLEDK, the “observed amide hydrogen exchange rate constant kobs” value is 0.00105.

Turning to IINEPTAAAIAYGLDK, the “observed amide hydrogen exchange rate constant kobs” value worked out at 0.000776.

As for FSGWYDADLSPAGHEEAK, the “observed amide hydrogen exchange rate constant kobs” value is 0.00239.

For the substance LNEHFLNTTDFLDTIK, the “observed amide hydrogen exchange rate constant kobs” value was determined as 0.00161.

In the case of TSFFQALGITTK, the “observed amide hydrogen exchange rate constant kobs” value was 0.00062.

On to LGEWVGLCK, for which the “observed amide hydrogen exchange rate constant kobs” value turned out to be 0.000773.

As to HQEGEIFDTEK, the “observed amide hydrogen exchange rate constant kobs” value stood at 0.0025.

In the case of VFIGNLNTLVVK, the “observed amide hydrogen exchange rate constant kobs” value is 0.000428.

For IGFPWSEIR, the “observed amide hydrogen exchange rate constant kobs” value worked out at 0.000936.

Take FSELTAEK: the “observed amide hydrogen exchange rate constant kobs” value was found to be 0.00148.

In the case of STTTGHLIYK, the “observed amide hydrogen exchange rate constant kobs” value came out at 0.00173.

In the case of IFGGLDMLAEK, the “observed amide hydrogen exchange rate constant kobs” value is 0.00145.

Consider DAGTIAGLNVLR, for which the “observed amide hydrogen exchange rate constant kobs” value stood at 0.000899.

Consider SSFYVNGLTLGGQK, for which the “observed amide hydrogen exchange rate constant kobs” value was 0.00091.

Turning to AGNLGGGVVTIER, the “observed amide hydrogen exchange rate constant kobs” value turned out to be 0.000802.

Regarding SIYGEK, the “observed amide hydrogen exchange rate constant kobs” value was found to be 0.00146.

As for EVFEDAAEIR, the “observed amide hydrogen exchange rate constant kobs” value worked out at 0.002.

In the case of IACLDFSLQK, the “observed amide hydrogen exchange rate constant kobs” value worked out at 0.000643.

On to IYVGNLPPDIR, for which the “observed amide hydrogen exchange rate constant kobs” value is 0.00116.

In the case of YLIPNATQPESK, the “observed amide hydrogen exchange rate constant kobs” value amounted to 0.000945.

LNGTDPEDVIR: the “observed amide hydrogen exchange rate constant kobs” value turned out to be 0.00197.

Consider GIGYLK, for which the “observed amide hydrogen exchange rate constant kobs” value came out at 0.00124.

With SSGPTSLFAVTVAPPGAR, the “observed amide hydrogen exchange rate constant kobs” value is 0.000757.

For QDFVQHFSQIVR, the “observed amide hydrogen exchange rate constant kobs” value turned out to be 0.00117.

As to GEATVSFDDPPSAK, the “observed amide hydrogen exchange rate constant kobs” value was determined as 0.00157.

Take ILTFDQLALDSPK: the “observed amide hydrogen exchange rate constant kobs” value worked out at 0.000724.

As for VAGQDGSVVQFK, the “observed amide hydrogen exchange rate constant kobs” value was 0.00116.

As to FEDENFILK, the “observed amide hydrogen exchange rate constant kobs” value is 0.00131.

As to TGTAEMSSILEER, the “observed amide hydrogen exchange rate constant kobs” value came out at 0.00127.

For MVLVGDVK, the “observed amide hydrogen exchange rate constant kobs” value was determined as 0.000602.

With LHFFMPGFAPLTSR, the “observed amide hydrogen exchange rate constant kobs” value worked out at 0.00112.

Consider YLPELMAEK, for which the “observed amide hydrogen exchange rate constant kobs” value was 0.000924.

With SDALETLGFLNHYQMK, the “observed amide hydrogen exchange rate constant kobs” value stood at 0.00133.

On to QQISLATQMVR, for which the “observed amide hydrogen exchange rate constant kobs” value was found to be 0.00147.

VHLVGIDIFTGK: the “observed amide hydrogen exchange rate constant kobs” value is 0.00113.

Turning to VYALPEDLVEVNPK, the “observed amide hydrogen exchange rate constant kobs” value is 0.0011.

For YYVTIIDAPGHR, the “observed amide hydrogen exchange rate constant kobs” value worked out at 0.00127.

AAGVNVEPFWPGLFAK: the “observed amide hydrogen exchange rate constant kobs” value was 0.000814.

IILDLISESPIK: the “observed amide hydrogen exchange rate constant kobs” value worked out at 0.000711.

With NIGVDNPAAK, the “observed amide hydrogen exchange rate constant kobs” value came to 0.0014.

Take FLPLFDR: the “observed amide hydrogen exchange rate constant kobs” value was 0.00116.

Source of the values: the supplement of paper PMC11875167.
